The target of assay [1] is biotinylated cynomolgus 4-1BB (bio.c4-1BB) (cynomolgus monkey) (UniProt A9YYE7). The experiment in a line: SPR (ProteOn XPR36), biotinylated c4-1BB immobilised on GLC chip, construct as analyte.
For assay [2] the target is unchanged. Put plainly: SPR (ProteOn XPR36); end of the group's range, tied to #47 by Table 15.
The target is the same in assay [3]. The experiment in a line: SPR (ProteOn XPR36); told of the group, largest difference is that of #47 by Table 15.
The target is the same in assay [4]. Put plainly: SPR (ProteOn XPR36); end of the group's range, tied to #44 by Table 15.
Assay [5] has the same target. The experiment in a line: SPR (ProteOn XPR36), bio.c4-1BB on NLC chip, MpA analyte; mean of triplicate.
Assay [6] addresses biotinylated human 4-1BB-Fc (bio.h4-1BB-Fc) (human) (UniProt Q07011). Put plainly: SPR (ProteOn XPR36), sequential injections; 100 nM MpA on 360 RU bio.h4-1BB-Fc on NLC chip.
Assay [7] concerns the target biotinylated cynomolgus 4-1BB (bio.c4-1BB) (cynomolgus monkey) (UniProt A9YYE7). Put plainly: SPR (ProteOn XPR36), bio.c4-1BB on NLC chip, MpA analyte; mean of triplicate; apparent affinity (bivalent).

Chain of biotinylated cynomolgus 4-1BB (bio.c4-1BB) (cynomolgus monkey) (A9YYE7 entry or part of it): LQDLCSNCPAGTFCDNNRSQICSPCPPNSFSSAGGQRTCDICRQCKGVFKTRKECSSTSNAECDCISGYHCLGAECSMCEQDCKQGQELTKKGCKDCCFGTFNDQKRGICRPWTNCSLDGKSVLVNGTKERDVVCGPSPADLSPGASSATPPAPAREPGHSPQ
Chain of biotinylated human 4-1BB-Fc (bio.h4-1BB-Fc) (human) (Q07011 24-186 limits assumed): as the sequence (A9YYE7 entry or part of it) above, with L4P, S19N, K50R, I66T, S67P, Y69F, E75G, A149V counted along it

B1: bispecific construct #47 (designed binder)
chain: MRGSHHHHHHGSDLGEKLLVAALYGQDDEVRILLAAGADVNAKDQWGLTPLHKAALQGHLEIVEVLLKAGADVNAKDERGHTPLHWAARFGHLEIVEVLLKAGADVNAQDQKGYTPADLAALWGHEDIAEVLQKAAGSPTPTPTTPTPTPTTPTPTPTGSDLGKKLLEAARAGQDDEVRELLKAGADVNAKDTYGETPLHLAAWKGHLEIVEVLLKAGADVNAKDSIGITPLHVAAHHGHLEIVEVLLKAGADVNAKDKWGRTPLHLAALLGHLEIAEVLLKAGADVNAQDKSGKTPADLAADAGHDDIAEVLQKLN
With B1, the figures for the Kd in assay [1] and in assay [2] were 2.9 nM and 1.1 to 2.9 nM, respectively. The same molecule registered a fold difference in binding affinity as compared to human 4-1BB in assay [3] of under 4 fold.

B2: bispecific construct #44 (designed binder)
chain: MRGSHHHHHHGSDLGEKLLVAALYGQDDEVRILLAAGADVNAKDQWGLTPLHKAALQGHLEIVEVLLKAGADVNAKDERGHTPLHWAARFGHLEIVEVLLKAGADVNAQDQKGYTPADLAALWGHEDIAEVLQKAAGSPTPTPTTPTPTPTTPTPTPTGSDLGQKLLKAAQEGQDDEVRELLKAGADVNAKDLRGITPLHVAAWQGHLEIVEVLLKAGADVNAKDSKGETPLHLAAFRGHLEIVEVLLKAGADVNAQDQQGETPADLAALAGHVDIAEVLQKLN
Turning to B2, the Kd in assay [1] is 1.12 nM; in assay [4] it was 1.1 to 2.9 nM.

B3: bispecific construct #49 (designed binder)
chain: MRGSHHHHHHGSDLGEKLLVAALYGQDDEVRILLAAGADVNAKDQWGLTPLHKAALQGHLEIVEVLLKAGADVNAKDERGHTPLHWAARFGHLEIVEVLLKAGADVNAQDQKGYTPADLAALWGHEDIAEVLQKAAGSPTPTPTTPTPTPTTPTPTPTGSDLGKKLLVAANVGQDDEVRILLAAGADVNAKDYHGYTPLHHAATYGHLEIVEVLLKAGADVNAKDQTGLTPLHLAAAKGHLEIVEVLLKAGADVNAQDHHGYTPADLAAFVGHEDIAVVLQKLN
As for B3, the Kd in assay [1] came out at 1.48 nM.

B4: Multispecific binding protein A (MpA) (designed binder)
chain: GSDLGKKLLEAARAGQDDEVRELLKAGADVNAKDYFSHTPLHLAARNGHLKIVEVLLKAGADVNAKDFAGKTPLHLAAADGHLEIVEVLLKAGADVNAQDIFGKTPADIAADAGHEDIAEVLQKAAGSPTPTPTTPTPTPTTPTPTPTGSDLGKKLLEAARAGQDDEVRELLKAGADVNAKDVLGWTPLHLAAFEGHLEIVEVLLKAGADVNAKDKKGWTPLQLAARTGHLEIVEVLLKAGADVNAKDHIGATPLHLAAWQGHPEIVEVLLKAGADVNAQDKSGKTPADLAADAGHEDIAEVLQKAAGSPTPTPTTPTPTPTTPTPTPTGSDLGQKLLKAAQEGQDDEVRELLKAGADVNAKDLRGITPLHVAAWQGHLEIVEVLLKAGADVNAKDSKGETPLHLAAFRGHLEIVEVLLKAGADVNAQDQQGETPADLAALAGHVDIAEVLQKAAGSPTPTPTTPTPTPTTPTPTPTGSDLGQKLLKAAQEGQDDEVRELLKAGADVNAKDLRGITPLHVAAWQGHLEIVEVLLKAGADVNAKDSKGETPLHLAAFRGHLEIVEVLLKAGADVNAQDQQGETPADLAALAGHVDIAEVLQKAAGSPTPTPTTPTPTPTTPTPTPTGSDLGKKLLEAARAGQDDEVRELLKAGADVNAKDYFSHTPLHLAARNGHLKIVEVLLKAGADVNAKDFAGKTPLHLAAADGHLEIVEVLLKAGADVNAQDIFGKTPADIAADAGHEDIAEVLQKAA
As to B4, in assay [5], the koff – broadly, the first-order rate constant of dissociation – was 2.7e-05 s⁻¹ and the kon (in general, the rate constant with which the complex forms) worked out at 2.1e+06 M⁻¹ s⁻¹. In addition, in assay [6], the Binding stoichiometry turned out to be 0.7. The Kd in assay [7] worked out at 0.014 nM.
